Measurements: patent US20240324599A1, “PESTICIDAL ENZYMES FOR USE ON NEMATODES, INSECTS, AND MOLLUSKS” (priority 2023, published 2024)

Tests used:
Format in all cases: in vivo
[1] = system: soybean cyst nematode (SCN, Heterodera glycines); experiment: Controlled environment soybean seed treatment trial: SCN cysts on roots; settings: for % Comparison to Control: base control = 100%
[2] = system: Fall armyworm (Spodoptera frugiperda); experiment: Diet-surface overlay (DSO) bioassay; settings: number of individuals
Procedure: (§1) Diet-surface overlay bioassays are conducted with artificial diet mixes without antibiotics in 1.5 cm^2 cell bioassay trays(s). Artificial diets are commercially available from Southland Products Inc. Diets were prepared by dispersing 0.5 mL of molten diet to each 1.5 cm^2 cell. After solidification, 0.1 mL enzyme treatments were dispersed on top of diet in each cell and the tray was gently rocked in an orbital shaker to spread the liquid uniformly over the diet surface. Trays were placed under clean airflow until the surface of each cell was uniformly dried. One or two 16-cell sections were used per treatment (the number in larvae treated was 16 or 32).
(§2) One healthy first instar larva was placed into each treatment cell, each 16-cell section was covered with a re-sealable lid and incubated at 27° C. and light-dark period of 16:8 hrs. After 7 days, and according to the species, the number of individuals in the following developmental categories was recorded.
(§3) Negative/untreated controls were treated with filtered water and positive controls were treated with lethal doses of Bacillus thuringiensis subsp. Kurstaki (Btk) spores at 1000 ppm.

[3] = system: Btk resistant Diamondback moth; experiment: Diet-surface overlay (DSO) bioassay; settings: Table 47, Btk resistant
Procedure: as §1, §2
Diamondback moth (Plutella xylostella): Dead Larva (lack of movement), Larva Stage I (≤50% relative size), Larva Stage II (100% relative size, full size), Early Pupa (light green color), Late Pupa (light-dark brown color), and Adult.
as §3
However, both neutral proteases reduced the number of individuals reaching adult stage.

[4] = Table 50, esterases, n=32, dose per treatment in U/mL Diet

B1: Bacillus thuringiensis Lipase 1 (protein, listed as Bacillus thuringiensis)
chain: YGFVSGVNDVLNPKASNLIKKTDVVAKEKKKTGTLQIVSLGDSLTRGVGDKEGIGYVGRMKEDLQKDYKQKIALTNLAVSGAKMPDLLKQIESNGAQYSIKQADVIVLTIGGNDLFPGWESLGKIDLETYRPDTETFQNEAKKIIEEIRKLNTDSPIFWLGLYNPFEDVEDLKGSSNIVVDWNASLEKLALNDKNVYITPTFDLFQNRGKDLLYSDHFHPNEVGYTYMAERLVQNVVSKLKLEQGGVK
With B1 as the molecule, how does the “% Comparison to Control” value ([1]; Table 19, change in brackets) read?
Its value is 75% (−25%).

And the “Average cysts per g of root tissue” value ([1]; Table 19, free enzyme seed treatment, soybean 2830E3, base control 442.5)?
The value was 332.0 cysts per g of root tissue.

B2: Trichoderma lixii trypsin-like protease (protein, listed as Trichoderma lixii)
chain: AAITPRGSDIVGGTTAALGEFPYIVSLSTGGSHFCGGVLIDSRTVVTAGHCTIDQRASSVKVRAGTLTWASGGTQVGVSSLTLHPSYTVDSQGVPDNDVGVWHLATAIPTSSTIGYATLPASGSDPAAGTTLTVAGWGTTSENSNSLPSTLRKVSVPVVARATCDSDYDGEISNNMFCAAVAAGGKDSCSGDSGGPIIDPSGTLVGVVSWGQGCAERGFPGVYTRLGNYVSFINSNRG
modifications: H182 trypsin-like protease
What does the source list for B2?
% Comparison to Control ([1]; Table 11): 26%; Average cysts per g of root tissue ([1]; Table 11, free enzyme seed treatment 2 fl oz/unit, soybean P18A98X, ILEVO 0.15 mg AI/seed, 3 weeks after inoculation, base control 71.4): 18.6 cysts per g of root tissue

B3: Bacillus thuringiensis Lipase 2 (protein, listed as Bacillus thuringiensis)
chain: EVVKELGKGFPDTEVFTPGEWFLGQKPANYDENKPPILFVQGRNGNADSWYGKTVYHDINDMYDYALKAGYQTVFIQLYDAAGKGSASQWDNGKLLAQKLEEIYNYFGKKVNIVAHSKGGIDTQAALVEYGANRFVGNVITLATPHHGSNLADLSYSWWAGWLASILGQKDDGTYSLQIGEMAKFRSIIDNNPAAKLNRYYTATGTSWGPTFSALSMGGLYLSSYGSNDGLVNEWSAKLSYGTHLFTDSRFDHDNIRKGSAVFARIEPYLRTTNVGLPALVASSTSSNEDLEQLNTTSNQNILGGELPQNQWIEQSISVDKKAEGIVSVLTASSDVEVQMVSPKGKIYANKDSAITTGEGESFFNRATIRTFKFDKLEVGEWKIKMMAKQSKDAYLVVSDYKDDAPFVLRMPTKVKINKPEYKLKKSPVAPEMKGDLSITVRVVNKEGKLVSEFNELQNVNTNTFTGALKDIKQPGVYNVTMDIKGMNKEGKPYNRTIVKSVYVEK
B3 was tested. Which “% Comparison to Control” value ([1]; Table 20, change in brackets) did it give?
The value was 57% (−43%).

What about the “Average cysts per g of root tissue” value ([1]; Table 20, free enzyme seed treatment, soybean 2830E3, base control 459.7) of the same molecule?
The value was 264.3 cysts per g of root tissue.

B4: H6-pnbA (SEQ ID NO: 94) (protein, listed as Bacillus subtilis)
chain: MTHQIVTTQYGKVKGTTENGVHKWKGIPYAKPPVGQWRFKAPEPPEVWEDVLDATAYGSICPQPSDLLSLSYTELPRQSEDCLYVNVFAPDTPSKNLPVMVWIHGGAFYLGAGSEPLYDGSKLAAQGEVIVVTLNYRLGPFGFLHLSSFNEAYSDNLGLLDQAAALKWVRENISAFGGDPDNVTVFGESAGGMSIAALLAMPAAKGLFQKAIMESGASRTMTKEQAASTSAAFLQVLGINEGQLDKLHTVSAEDLLKAADQLRIAEKENIFQLFFQPALDPKTLPEEPEKAIAEGAASGIPLLIGTTRDEGYLFFTPDSDVHSQETLDAALEYLLGKPLAEKVADLYPRSLESQIHMMTDLLFWRPAVAYASAQSHYAPVWMYRFDWHPKKPPYNKAFHALELPFVFGNLDGLERMAKAEITDEVKQLSHTIQSAWITFAKTGNPSTEAVNWPAYHEETRETLILDSEITIENDPESEKRQKLFPSKGE
modifications: Esterase (pnbA)
For B4, which “Larva Stage I” value ([2]; Table 50, esterases, n=32) is on record?
The value was 0.

What about the “Larva Stage II” value ([2]; Table 50, esterases, n=32) of the same molecule?
The value was 0.

What about the “Larva Stage III” value ([2]; Table 50, esterases, n=32) of the same molecule?
The value was 15.

What about the “Larva Stage IV” value ([2]; Table 50, esterases, n=32) of the same molecule?
Its value is 17.

And the “Dead Larva” value [2, 4]?
Its value is 0.

B5: Chitinase C (protein, listed as Bacillus thuringiensis)
chain: DSPKQSQKIVGYFPSWGVYGRNYQVADIDASKLTHLNYAFADICWKGKHGNPSTHPDNPNKQTWNCKESGVPLQNKEVPNGTLVLGEPWADVTKSYPGSGTTWEDCDKYARCGNFGELKRLKAKYPHLKTIISVGGWTWSNRFSDMAADEKTRKVFAESTVAFLRAYGFDGVDLDWEYPGVETIPGGSYRPEDKQNFTLLLQDVRNALNKAGAEDGKQYLLTIASGASQRYADHTELKKISQILDWINIMTYDFHGGWEATSNHNAALYKDPNDPAANTNFYVDGAIDVYTNEGVPVDKLVLGVPFYGRGWKSCGKENNGQYQPCKPGSDGKLASKGTWDDYSTGDTGVYDYGDLTANYVNKNGFVRYWNDTAKVPYLYNATTGTFISYDDNESMKYKTDYIKTKGLSGAMFWELSGDCRTSPKYSCSGPKLLDTLVKELLGGPINQKDTEPPTNVKNIIVTNKTSSSVQLSWTASTDNVGVTEYEITAGEEKWSATTNSITIKNLKPNTEYTFSVIAKDASGNKSHPTALTVKTDEANTTPPDGNGTATFSVTSNWGSGYNFSIIIKNNGTIPIKNWKLEFDYSGNLTQVWDSKISSKTNNHYVITNAGWNGEIPPGGSITIGGAGTGNPAELLNAVISEN
Which results are given for B5?
% Comparison to Control ([1]; Table 18, change in brackets): 78% (−22%); Average cysts per g of root tissue ([1]; Table 18, free enzyme seed treatment, base control 58.3): 45.7 cysts per g of root tissue

B6: Pseudomonas sp. esterase free enzyme concentrate (SEQ ID NO: 248): free enzyme concentrated in an Amicon Ultra 4K filter unit (protein, listed as Pseudomonas sp.)
chain: MTEPLILQPVKPADACVIWLHGLGADRYDFLPVAEALQEILLSTRFVLPQAPTRPVTINGGYAMPSWYDIKAMSPARAIDRDELEASADRIIELIEEQRSSGIDASRIFLAGFSQGGAVVYHTAFLKWQGPLGGVLALSTYAPTFSDELELSASQQRIPVLSLHGQFDNVVQNSMGRTAYEYLKAHGVTVTWQEYPMEHEVLPEEIRDIGTWLSERLR
For B6, which “% Comparison to Control” value ([1]; Table 16, change in brackets) is on record?
The value was 75% (−25%).

And the “Average cysts per g of root tissue” value ([1]; Table 16, seed treatment, soybean 2830E3, concentrate = 4× volumetric concentration, base control 244.3)?
The value was 182.1 cysts per g of root tissue.

B7: Akanthomyces lecanii Acidic Chitinase 1 (Chit1) (protein, listed as Akanthomyces lecanii)
chain: MAKCTSPDRKCPAPLIDAPINSFMTDGWADTDIHWEGDSWNDSGTNIYGCLKQLNILKKHNRNFKVLLSIGGWTYSSNFPAPASTPEGRDTFAKSCVELVKNLGFDGIDIDWEYPKTAEEAGHFVELLAEVRKQLDEYSARAANNYHFELSVACPAGPDNFQKLNISGMDAYLDFWNLMAYDYAGSWDKNSGHQANLYPCKDAPGCTPFSTVAAVDYYTSNGVSPDKLVLGMPLYGRAFENCDGIGQPFQGVGQGTWEQGVYDYKKLPLEGAEEHKDDDSCATYCHNAESRTLVTYDTPELAKTKADFIKERGLGGGMWWESSADKAGDDSLIQVVVSELGGPEALKQQQNCISYPETKYDNLRDGLPDN
modifications: Acidic Chitinase 1 (Chit1-H195)
How did the “Dead Larva” value ([3]; individuals of n = 32 after 7 days, mU/mL diet: SEQ 182 3.7, SEQ 185 0.6, water 1) turn out when B7 was run?
Its value is 2.

What about the “Early Pupa” value ([3]; n = 32, doses as E97, water 0) of the same molecule?
The value was 8.

What about the “Larva Stage I” value ([3]; n = 32, doses as E97, water 0) of the same molecule?
The value was 2.

And the “Larva Stage II” value ([3]; n = 32, doses as E97, water 0)?
The value was 2.

And the Adult ([3]; n = 32, doses as E97, water 7)?
Its Adult is 1.

What about the “Late Pupa” value ([3]; n = 32, doses as E97, water 24) of the same molecule?
The value was 17.

And the “Larva Stage I” value ([2]; Table 48, chitinases, n = 32)?
Its value is 4.

What about the “Larva Stage II” value ([2]; Table 48, chitinases, n = 32) of the same molecule?
Its value is 5.

What about the “Larva Stage III” value ([2]; Table 48, chitinases, n = 32) of the same molecule?
The value was 8.

And the “Larva Stage IV” value ([2]; Table 48, chitinases, n = 32)?
The value was 8.

What about the “Dead Larva” value ([2]; Table 48, chitinases, n = 32, dose per treatment in mU/mL Diet) of the same molecule?
Its value is 7.

B8: H6-pytH (SEQ ID NO: 95) (protein, listed as Sphingobium wenxiniae)
chain: MTVTDIILIHGALNRGACYDAVVPLLEARGYRVHAPDLTGHTPGDGGHLSVVDMEHYTRPVADILARAEGQSILLGHSLGGASISWLAQHHPDKVAGLIYLTAVLTAPGITPETFVLPGEPNRGTPHALDLIQPVDEGRGLQADFSRLERLREVFMGDYPGEGMPPAEQFIQTQSTVPFGTPNPMEGRALEIPRLYIEALDDVVIPIAVQRQMQKEFPGPVAVVSLPASHAPYYSMPERLAEAIADFADAPAEYRQTATKAGPDRPAGADGGRADRADLP
modifications: Esterase (pytH)
Which “Larva Stage I” value ([2]; Table 50, esterases, n=32) does the source give for B8 here?
The value was 0.

And the “Larva Stage II” value ([2]; Table 50, esterases, n=32)?
The value was 0.

What about the “Larva Stage III” value ([2]; Table 50, esterases, n=32) of the same molecule?
The value was 13.

What about the “Larva Stage IV” value ([2]; Table 50, esterases, n=32) of the same molecule?
The value was 19.

What about the “Dead Larva” value [2, 4] of the same molecule?
Its value is 0.

B9: Bacillus pumulis Collagenase B (ColB) (protein, listed as Bacillus pumulis, listed as Bacillus pumilus)
chain: IVNGKRVITKKPELLAPAGNLEKLKIAVHYGADAVFIGGQEYGLRSNADNFTIEEIAEGVEFAKKYGAKIYVTTNIFAHNENMDGLEDYLKALGDANVAGIIVADPLIIETCRRVAPNVEVHLSTQQSLSNWKAVQFWKEEGLDRVVLARETSALEIREMKEKVDIEIESFIHGAMCIAYSGRCVLSNHMTARDSNRGGCCQSCRWDYDLYQTDGANAVALYGEEDAPFAMSPKDLKLIESIPKMIEMGIDSLKIEGRMKSIHYVATVVSVYRKVIDAYCADPENFVIQKEWLEELDKCANRDTATAFFEGTPGYEEQMFGEHAKKTTYDFVGLVLNYDEDTQMVTLQQRNFFKKGDEVEFFGPEIENFTHTIETIWDEDGNELDAARHPLQIVKFKLDKKIYPSNMMRKGK
modifications: Collagenase B (ColB)
For B9, which “% Comparison to Control” value ([1]; Table 22, change in brackets) is on record?
The value was 15% (−85%).

And the “Average cysts per g of root tissue” value ([1]; Table 22, free enzyme seed treatment, soybean 2830E3, base control 470.7)?
The value was 70.9 cysts per g of root tissue.
